Assay results: patent publication US20190292221A1 (published 2019)

Experiments:
Human EGFR-his [1] = molecular target: T1, Human EGFR-his (human, UniProt P00533 25-645); test: SPR, BEAT®3 captured on Protein G chip, EGFR-his injected; sample after high pH, 0 h
T1 construct: Soluble his-tagged antigen injected over captured BEAT®3; also called hsEGFR; not shown: his tag

Human EGFR-his [2] = molecular target: T1, Human EGFR-his; test: SPR, BEAT®3 captured on Protein G chip, EGFR-his injected; sample after high pH, 24 h
Human EGFR-his [3] = molecular target: T1, Human EGFR-his; test: SPR, BEAT®3 captured on Protein G chip, EGFR-his injected; sample after high pH, 2 h
Human EGFR-his [4] = molecular target: T1, Human EGFR-his; test: SPR, BEAT®3 captured on Protein G chip, EGFR-his injected; sample after high pH, 4 h
Human EGFR-his [5] = molecular target: T1, Human EGFR-his; test: SPR, BEAT®3 captured on Protein G chip, EGFR-his injected; average of 4 replicates of Reference #1 and #2

Average rel KD (Human EGFR-his [1]): 0.98 relative to reference
Relative KD R1 (Human EGFR-his [1]): 0.988 relative to reference
Average rel KD (Human EGFR-his [2]): 1.15 relative to reference
Relative KD R1 (Human EGFR-his [2]): 1.17 relative to reference
Average rel KD (Human EGFR-his [3]): 1.02 relative to reference
Relative KD R1 (Human EGFR-his [3]): 1.02 relative to reference
Average rel KD (Human EGFR-his [4]): 1.09 relative to reference
Relative KD R1 (Human EGFR-his [4]): 1.11 relative to reference
Average rel KD (Human EGFR-his [5]): 1 relative to reference
B1: BEAT®3 (bispecific antibody, human IgG1, kappa, L234A L235A)
chain 1: EVQLVESGGGLVQPGGSLRLSCAASGFTFNTYAMNWVRQAPGKGLEWVARIRSKYNNYATYYADSVKSRFTISRDDSKNTLYLQMNSLRAEDTAVYYCVRHGNFGNSYVSYFAYWGQGTTVTVSSGGGGSGGGGSGGGGSEIVVTQSPATLSVSPGERATLSCRSSTGAVTESNYANWVQEKPGQAFRGLIGGANKRAPGVPARFSGSLSGDEATLTISSLQSEDFAVYYCALFYSNTWVFGQGTKLEIKGGGGTQVQLQESGPGLVKPSETLSLTCTVSGGSVSSGDYYWTWIRQSPGKGLEWIGHIYYSGNTNYNPSLKSRLTISIDTSKTQFSLKLSSVTAADTAIYYCVRDRVTGAFDIWGQGTMVTVSSASTKGPSVFPLAPSSKSTSGGTAALGCLVKDYFPEPVTVSWNSGALTSGVHTFPAVLQSSGLYSLSSVVTVPSSSLGTQTYICNVNHKPSNTKVDKKVEPKSCDKTHTCPPCPAPEAAGGPSVFLFPPKPKDTLMISRTPEVTCVVVDVSHEDPEVQFKWYVDGVEVHNAKTKPREEQYNSTFRVVSVLTVLHQDWLNGKEYKCKVSNKALPAPIEKTISKTKGQPREPAVYTLPPSREEMTKNQVKLVCLVTGFYPSDIAVEWESSGQPENNYYTTPPMLDSDGSFSLVSWLNVDKSRWQQGNIFSCSVMHEALHNRFTQKSLSLSPG
chain 2: not shown
chain 3: DKTHTCPPCPAPEAAGGPSVFLFPPKPKDTLMISRTPEVTCVVVDVSHEDPEVKFNWYVDGVEVHNAKTKPREEQYNSTYRVVSVLTVLHQDWLNGKEYKCKVSNKALPAPIEKTISKAKGQPREPEVATFPPSRDELTKNQVTLVCLVTGFYPSDIAVEWESNGQPENNYKTDPPLLESDGSFALSSRLRVDKSRWQQGNVFSCSVMHEALHNHYTQKSLSLSPG
notes: also called third BEAT antibody
